Reference: patent publication US20120282257A1

Assays:
[1] = molecular target: human CD99 on live/intact cells (human) (UniProt P14209); assay: flow cytometry, live RD-ES cells (Ewing sarcoma)
[2] = molecular target: human CD99 on live/intact cells (human) (UniProt P14209); assay: flow cytometry, live HSSC163 cells (mesenchymal)
[3] = molecular target: human CD99 on live/intact cells (human) (UniProt P14209); assay: flow cytometry, live SKES-1 cells (Ewing sarcoma)
[4] = molecular target: human CD99 on live/intact cells (human) (UniProt P14209); assay: flow cytometry, live TC-71 cells (Ewing sarcoma)
[5] = molecular target: human CD99 on live/intact cells (human) (UniProt P14209); assay: flow cytometry, live IOR/OS7 cells (osteosarcoma)
[6] = molecular target: human CD99 on live/intact cells (human) (UniProt P14209); assay: flow cytometry, live MOS cells (osteosarcoma)
[7] = molecular target: human CD99 on live/intact cells (human) (UniProt P14209); assay: flow cytometry, live RM-82 cells (Ewing sarcoma)
[8] = molecular target: human CD99 on live/intact cells (human) (UniProt P14209); assay: flow cytometry, live MG-63 cells (osteosarcoma)
[9] = molecular target: human CD99 on live/intact cells (human) (UniProt P14209); assay: flow cytometry, PBMC
[10] = molecular target: human CD99 on live/intact cells (human) (UniProt P14209); assay: flow cytometry, live U2-OS cells (osteosarcoma)
[11] = molecular target: human CD99 on live/intact cells (human) (UniProt P14209); assay: flow cytometry, live HSSC168 cells (mesenchymal)
[12] = molecular target: human CD99 on live/intact cells (human) (UniProt P14209); assay: flow cytometry, live H-825 cells (Ewing sarcoma)

UniProt P14209, sequence (P14209 23-185): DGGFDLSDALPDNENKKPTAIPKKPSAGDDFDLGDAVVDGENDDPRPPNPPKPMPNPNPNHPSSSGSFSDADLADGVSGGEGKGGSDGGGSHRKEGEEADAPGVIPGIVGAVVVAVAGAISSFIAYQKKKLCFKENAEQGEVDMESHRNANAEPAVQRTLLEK

percent of cells positive [1]: 75 to 100% | percent of cells positive [2]: 50 to 75% | percent of cells positive [3]: 75 to 100% | percent of cells positive [4]: 75 to 100% | percent of cells positive [5]: 75 to 100% | percent of cells positive [6]: 75 to 100% | percent of cells positive [7]: 75 to 100% | percent of cells positive [8]: 75 to 100% | percent of cells positive [9]: 75 to 100% | percent of cells positive [10]: 50 to 75% | percent of cells positive [11]: 75 to 100% | percent of cells positive [12]: 75 to 100%
Substance: mAbO13 (antibody)
